We go through two molecules from US20200299380A1 (published 2020).

In experiment [1] the target is T1, recombinant human MICA extracellular domain recombinant-His protein (MICA*001 allele) (human, UniProt Q29983 24-297).
T1 construct: also called MICA*001-His; MICA-His; not shown: His tag
T1 sequence: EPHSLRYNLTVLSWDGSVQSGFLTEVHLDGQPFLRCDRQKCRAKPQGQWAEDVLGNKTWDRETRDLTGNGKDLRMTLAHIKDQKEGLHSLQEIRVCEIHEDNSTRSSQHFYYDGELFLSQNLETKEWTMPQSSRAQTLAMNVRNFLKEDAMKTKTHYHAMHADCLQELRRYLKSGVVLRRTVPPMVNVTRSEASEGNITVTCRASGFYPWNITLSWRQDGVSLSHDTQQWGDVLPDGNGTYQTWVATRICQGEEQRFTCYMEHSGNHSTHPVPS
In words: SPR (Biacore T100), monovalent affinity. On the technique in general: In SPR one partner is held on a chip, and binding of the other changes the refractive index at the surface.

The target in experiment [2] is T1, recombinant human MICA extracellular …. In words: SPR (Biacore T100), bivalent mean KD at pH 7.4, MICA*001-His on NTA chip, antibody injected. How it is done: The binding of 6E4, 20C6 and 16A8 to either recombinant human MICA extracellular domain recombinant protein monomers or dimers (MICA*019 allele-Fc protein or MICA*001-His protein) as well as other NKG2D ligands MICB and ULBP1-2 was analyzed by Surface Plasmon Resonance (SPR) using a Biacore T100 apparatus to obtain monovalent and bivalent affinity, respectively.
Each cycle consisted of three steps. Firstly, the NTA chip was activated with NiSO₄ (500 mM). Secondly, the MICA-His protein (diluted to 10 μg/ml in running buffer HBS-P) was immobilized onto the surface via a 2 min injection at a constant flowrate of 10 μL/min. Then the antibody was injected over the immobilized antigen for 2 min at the flow rate of 40 μl/min. Subsequently, the running buffer was injected for 5 min at 40 μl/min for antibody dissociation analysis. After each cycle, the surface was regenerated by a 60s injection of 0.5M EDTA, pH 8.3 to completely strip the surface of the remaining antigen and antibody. The resulting sensorgrams were analyzed by global fitting using the appropriate model.

B1: biotin-conjugated mouse antibody 20C6 (antibody, V domains shown)
VH: QITLKESGPGILKPSQTLSLTCSFSGFSLSTSGMGVGWIRQPSGKGLEWLAHIWWDDDKYYNPSLKSQLTISKDTSRNQVFLRITSVDTADTATYYCARRTQGYFDYWGQGTTLTVSS
VL: DIVMTQSPATLSVTPGDRVSLSCRASQSISDYLHWYQQKSHESPRLLIKYASQSISGIPSRFSGSGSGSDFTLSINSVEPEDVGVYYCQNGHSFPWTFGGGTKLEIK
notes: also called 20C6 (mouse)
With B1, the Kd in experiment [1] was found to be 6.5 nM; in experiment [2], 0.33 nM.

B2: biotin-conjugated mouse antibody 6E4 (antibody, V domains shown)
VH: EVQLVESGGALVKPGGSLKLSCAASGFTFSYYAMSWVRQTPEKRLEWVATISRGGNYIYYTDSVKGRFTISRDNAKNTLYLQMTSLRSEDTAMFYCASISDYDGAWLAYWGQGTLVTV
VL: DVLMTQTPLSLPVSLGDQASISCRSSQSIIHTNGNTYLEWYLQKPGQSPKLLIYKISNRFSGVPDRFSGSGSGTDFTLKISRVEAEDLGVYYCFQGSHVPWTFGGGTKLEIK
notes: also called 6E4 (mouse)
Take B2: the Kd came out at 2 nM in experiment [1] and 0.031 nM in experiment [2].
